Measurements as given in CN116670173A (LAMCAP BIOTEST LTD, dated 2023).

Biological target: T1, 在MKN-45细胞表面表达的人CD47 (human, UniProt Q08722 19-323)
T1 construct: whole, on cells; MKN-45 cells also carry CEACAM5; also called hCD47; CD47 on MKN-45 cells
Assay: CD47/SIRPα blocking assay on MKN-45 cells, SIRPα-mouse Fc 50 ng/mL, imaging (CX5)

T1 sequence (Q08722 19-323): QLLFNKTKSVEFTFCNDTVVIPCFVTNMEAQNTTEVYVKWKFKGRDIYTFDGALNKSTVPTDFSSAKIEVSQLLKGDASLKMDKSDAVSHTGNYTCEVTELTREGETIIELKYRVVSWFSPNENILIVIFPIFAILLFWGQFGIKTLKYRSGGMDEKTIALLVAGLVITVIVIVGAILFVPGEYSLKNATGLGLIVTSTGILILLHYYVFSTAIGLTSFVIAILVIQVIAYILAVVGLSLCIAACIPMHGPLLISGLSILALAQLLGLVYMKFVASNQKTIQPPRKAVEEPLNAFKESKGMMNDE

| IC50 [nM] | Binder |
| --- | --- |
| 0.04 | K2AC84 (bispecific antibody, human IgG1, kappa, lambda, kappa-lambda body, human IgG1; Common heavy chain and CD47 light chain tied by embodiment language only; also called CD47xCEACAM5双特异性抗体K2AC84; CEACAM5xCD47双特异性抗体) heavy: not shown light 1: QSVLTQPPSVSAAPGQKVTISCSGSSSNIGIGLVSWYQQLPGTAPKLLIYNVNTRPSGIPDRFSGSKSGTSATLGITGLQTGDEADYYCGTWDFSYRVDFGGGTKLTVLGQPKAAPSVTLFPPSSEELQANKATLVCLISDFYPGAVTVAWKADSSPVKAGVETTTPSKQSNNKYAASSYLSLTPEQWKSHRSYSCQVTHEGSTVEKTVAPTECS light 2: not shown |
| 1.2 | K2AC22 (bispecific antibody, human IgG1, kappa, lambda, Comparator from WO2019234576; also called 现有技术的双特异性CEAxCD47抗体K2AC22) heavy: not shown light 1: QSVLTQPPSVSAAPGQKVTISCSGSSSNIANGIVSWYQQLPGTAPKLLIYFDNLRPSGIPDRFSGSKSGTSATLGITGLQTGDEADYYCGTWDFSYGIVFGGGTKLTVLGQPKAAPSVTLFPPSSEELQANKATLVCLISDFYPGAVTVAWKADSSPVKAGVETTTPSKQSNNKYAASSYLSLTPEQWKSHRSYSCQVTHEGSTVEKTVAPTECS light 2: not shown |
| 0.09 | K2AC100 (bispecific antibody, human IgG1, kappa, lambda, kappa-lambda body, human IgG1; Common heavy chain and CD47 light chain tied by embodiment language only; also called CD47xCEACAM5双特异性抗体K2AC100; CEAxCD47双特异性抗体K2AC100) heavy: not shown light 1: QSVLTQPPSVSAAPGQKVTISCSGSSSNIGYGLVSWYQQLPGTAPKLLIYNGNIRPSGIPDRFSGSKSGTSATLGITGLQTGDEADYYCGTWDFSYRVDFGGGTKLTVLGQPKAAPSVTLFPPSSEELQANKATLVCLISDFYPGAVTVAWKADSSPVKAGVETTTPSKQSNNKYAASSYLSLTPEQWKSHRSYSCQVTHEGSTVEKTVAPTECS light 2: not shown |
| 0.08 | K2AC117 (bispecific antibody, human IgG1, kappa, lambda, kappa-lambda body, human IgG1; Common heavy chain and CD47 light chain tied by embodiment language only; also called CD47xCEACAM5双特异性抗体K2AC117; K2AC177 (as printed in some legends)) heavy: not shown light 1: QSVLTQPPSVSAAPGQKVTISCSGSSSNIGIGLVSWYQQLPGTAPKLLIYNGNVRPSGIPDRFSGSKSGTSATLGITGLQTGDEADYYCGTWDFSYRVDFGGGTKLTVLGQPKAAPSVTLFPPSSEELQANKATLVCLISDFYPGAVTVAWKADSSPVKAGVETTTPSKQSNNKYAASSYLSLTPEQWKSHRSYSCQVTHEGSTVEKTVAPTECS light 2: not shown |
| 0.05 | K2AC91 (bispecific antibody, human IgG1, kappa, lambda, kappa-lambda body, human IgG1; Common heavy chain and CD47 light chain tied by embodiment language only; also called CD47xCEACAM5双特异性抗体K2AC91; CEACAM5xCD47双特异性抗体) heavy: not shown light 1: QSVLTQPPSVSAAPGQKVTISCSGSSSNIGIGLVSWYQQLPGTAPKLLIYTVNNRPSGIPDRFSGSKSGTSATLGITGLQTGDEADYYCGTFDFSYGIVFGGGTKLTVLGQPKAAPSVTLFPPSSEELQANKATLVCLISDFYPGAVTVAWKADSSPVKAGVETTTPSKQSNNKYAASSYLSLTPEQWKSHRSYSCQVTHEGSTVEKTVAPTECS light 2: not shown |
| 0.07 | K2AC82 (bispecific antibody, kappa-lambda body, human IgG1, one arm for each target; Common heavy chain and CD47 light chain are tied to the antibodies of the invention by embodiment language only; also called CD47xCEACAM5双特异性抗体K2AC82; CEACAM5xCD47双特异性抗体; not shown: lambda constant domain; probably S) heavy: not shown light 1: QSVLTQPPSVSAAPGQKVTISCSGSSSNIGYGLVSWYQQLPGTAPKLLIYGINKRPSGIPDRFSGSKSGTSATLGITGLQTGDEADYYCGTWDFSYRVDFGGGTKLTVL light 2: not shown |
